Literature values in US6878743B2, “Small molecule inhibitors of caspases” (Sunesis Pharmaceuticals, Inc., priority 2001, dated 2005).

How the values were obtained:
caspase-3 = biological target: T1, caspase-3 (Homo sapiens, UniProt P42574); details: Garcia-Calvo et al. 1998
T1 sequence (P42574 29-175 limits assumed): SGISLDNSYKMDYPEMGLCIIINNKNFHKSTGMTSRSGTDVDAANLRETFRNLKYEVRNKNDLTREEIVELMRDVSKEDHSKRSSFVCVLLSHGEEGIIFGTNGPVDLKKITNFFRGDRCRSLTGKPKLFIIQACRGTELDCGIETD
T1 sequence (P42574 176-277 limits assumed): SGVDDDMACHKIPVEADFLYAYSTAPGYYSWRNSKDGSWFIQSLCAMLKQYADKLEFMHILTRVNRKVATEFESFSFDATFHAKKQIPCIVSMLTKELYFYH

caspase-1 = biological target: T2, caspase-1 (Homo sapiens, UniProt P29466); details: Garcia-Calvo et al. 1998
T2 sequence (P29466 120-297 limits assumed): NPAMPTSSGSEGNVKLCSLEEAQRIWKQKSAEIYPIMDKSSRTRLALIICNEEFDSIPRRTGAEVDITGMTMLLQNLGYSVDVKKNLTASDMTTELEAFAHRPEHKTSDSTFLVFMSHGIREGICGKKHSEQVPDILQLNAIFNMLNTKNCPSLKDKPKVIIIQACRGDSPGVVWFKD
T2 sequence (P29466 317-404 limits assumed): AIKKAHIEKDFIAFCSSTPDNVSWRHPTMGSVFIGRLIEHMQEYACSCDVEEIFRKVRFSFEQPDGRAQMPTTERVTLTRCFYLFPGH

| Substance | Ki (caspase-3) [nM] | Ki (caspase-1) [nM] |
| --- | --- | --- |
| Ac-Tyr-Val-Ala-Asp-CHO | 1960 | 0.056 |
| Ac-Asp-Glu-Val-Asp-CHO | – | 18 |
